Test results from patent US20150232852.

Columns and labels:
[1] = target: D-glucagon (all D-amino acids), biotinylated (Homo sapiens) (UniProt P01275); assay: pulldown; conditions: D-DNA; 37 C, 1 mM Mg, 1 mM Ca, pH 7.4; direct pull-down
[2] = target: glucagon, L-form, biotinylated (glucagon1-29-AEEAc-AEEAc-biotin) (Homo sapiens) (UniProt P01275); assay: pulldown; conditions: L-DNA; 37 C, 1 mM Mg, 1 mM Ca, pH 7.4; direct pull-down, spiegelmer
Chain of glucagon, L-form, biotinylated (glucagon1-29-AEEAc-AEEAc-biotin) (Homo sapiens) (P01275 53-81): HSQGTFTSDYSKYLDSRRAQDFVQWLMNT

| Sequence | Kd [1] [nM] | Kd [2] [nM] |
| --- | --- | --- |
| CGACTCGAGAGGAAAGGTTGGTAAAGGTTCGGTTGGATTCACTCGAGTCG [259-H6-001 (aptamer)] | 33 |  |
| GCAGTGGGGAAATGGGAGGGCTAGGTGGAAGGAATCTGAGCTACTGC [257-E1-001 (aptamer)] | 137 |  |
| GCAGTGGGGAAATGGGAGGGCTAGGTGGAAGGAATCTGAGCTACTGC [257-E1-001 (spiegelmer)] |  | 179 |
